How the values were obtained:
[1] = biological target: RAGE (Homo sapiens) (UniProt Q15109); conditions: cited from earlier work
[2] = biological target: N-methyl-D-aspartate receptor (NMDAR) of C44 murine erythroleukaemia (MEL) cell membranes (mouse (endogenous in C44 MEL cells)) (UniProt P35438)

Sequence of HMGB1 (P09429 whole entry): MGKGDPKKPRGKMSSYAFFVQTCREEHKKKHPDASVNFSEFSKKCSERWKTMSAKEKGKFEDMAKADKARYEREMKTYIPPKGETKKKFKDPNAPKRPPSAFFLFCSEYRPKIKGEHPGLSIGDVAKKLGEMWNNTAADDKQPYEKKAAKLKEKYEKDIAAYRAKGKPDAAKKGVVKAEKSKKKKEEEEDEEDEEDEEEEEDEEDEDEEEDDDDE
Sequence of UniProt Q15109 (Q15109 23-404): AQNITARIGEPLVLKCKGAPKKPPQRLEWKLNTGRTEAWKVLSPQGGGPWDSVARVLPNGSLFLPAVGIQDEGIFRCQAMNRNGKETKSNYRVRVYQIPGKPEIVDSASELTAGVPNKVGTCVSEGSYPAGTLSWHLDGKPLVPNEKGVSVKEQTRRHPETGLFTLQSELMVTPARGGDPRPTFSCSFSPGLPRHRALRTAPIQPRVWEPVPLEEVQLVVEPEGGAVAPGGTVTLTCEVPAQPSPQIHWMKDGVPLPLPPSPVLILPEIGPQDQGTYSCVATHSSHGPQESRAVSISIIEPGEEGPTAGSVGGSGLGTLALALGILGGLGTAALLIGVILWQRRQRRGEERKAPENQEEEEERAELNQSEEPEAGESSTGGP

percent of differentiated (benzidine-positive) MEL cells after 24 h with HMBA and 250 pM HMGB1 (6% with HMBA alone; the increase abolished by MK-801 and antagonized by CGS 19755) [2] [%]	Substance	Kd [1] [nM]
	HMGB1 (from UniProt P09429)	10
12	high mobility group box 1 (HMGB1) protein, eukaryotic recombinant (from UniProt P63159 1-215) (natural protein)	

Reference: paper PMC3432114
